Measured values published in article PMC3337157 (Small GTPases, 2011).

Biological target: T1, Rnd1 mutant W66L (residues 5-200) (UniProt Q92730 5-200, W66L)
T1 sequence (looked up): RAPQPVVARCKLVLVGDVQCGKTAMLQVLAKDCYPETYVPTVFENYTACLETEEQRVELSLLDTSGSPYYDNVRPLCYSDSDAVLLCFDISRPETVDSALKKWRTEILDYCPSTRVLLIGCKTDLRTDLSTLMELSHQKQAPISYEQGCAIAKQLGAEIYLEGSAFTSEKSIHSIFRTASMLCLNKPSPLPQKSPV
Test: ITC

B1: plexin-B1 Rho GTPase binding domain (RBD) (domain or fragment)
chain: DVEYRPLTLNALLAVGPGAGEAQGVPVKVLDCDTISQAKEKMLDQLYKGVPLTQRPDPRTLDVEWRSGVAGHLILSDEDVTSEVQGLWRRLNTLQHYKVPDGATVALVPCLTKHVLRENQ
A Ka of 209000 M⁻¹, a Kd of 4.8 ± 0.5 µM and a dH of -3.9 ± 0.1 kcal/mol were found for B1 in this work. The “stoichiometry N” value was 0.98.
